Laboratory results from the supplement of paper PMC11780869.

System: Bacillus subtilis
Test: cleaved RNA product abundance (RNA/gDNA barcode ratio) relative to median wild-type variant (ratio to wild type); higher = more accumulation of the downstream cleavage product
Summary of the method: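 Cleaved product abundance was measured with barcoded reporter mRNAs (truncated aprE or tetM) carrying mutagenized RNase Y cleavage-site windows in the B. subtilis chromosome. Cultures in LB at 37°C grew from OD600 0.0003 to 0.3. Gel-selected cleaved RNA was reverse transcribed and barcode-sequenced with genomic DNA barcodes, and the RNA:gDNA barcode ratio per construct was scaled to the median construct bearing the unmutated site.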

[1] = experiment (reporter, strain, medium): exp 4a: truncated aprE reporter, strain BJT201 with 2% xylose (RNase J1 expressed), cleavage site: cggR-gapA (positions -7 to +36 mutated)
[2] = experiment (reporter, strain, medium): exp 2b: truncated aprE reporter, strain BJT200, cleavage site: cggR-gapA (positions -7 to +36 mutated)
[3] = experiment (reporter, strain, medium): exp 8a: truncated aprE reporter, strain BJT201 with 2% xylose (RNase J1 expressed), cleavage site: glnRA (positions -5 to +31 mutated)

Sequence	cleaved RNA product abundance [1]	cleaved RNA product abundance [2]	cleaved RNA product abundance [3]
ACAGACGAAGGAGCCGCAAAGAAGGTATTAAGGTATGAATAATCCCTCAATATAAATATCTCTCACTTATTTAAA	0.23		
ACAGACGAAGGAGCCGCAAAGAAGTTATTAAGGAATGAATAATACCTCAATATAAATATCTCTCACTTATTTAAA	0.124	0.121	
ACAGACGAAGGAGCCGCAAAGAAGTAATTAAGGGATGAATAATCCGTCAATATAAATATCTCTCACTTATTTAAA	0.179		
ACAGACGAAGGAGCCGCAAAGAAGTTATTAAGGGATTAACAATCCCTCAATATAAATATCTCTCACTTATTTAAA	0.961	1.08	
ACAGACGAAGGAGCCGCAAAGAAGTAATTAAGGGATGAATATTCCCTCAATATAAATATCTCTCACTTATTTAAA	0.293		
ACAGACGAAGGAGCCGCAAAGAAGTTATTAAGGTATGAATAATCGCTCAATATAAATATCTCTCACTTATTTAAA	0.0909		
CGACATGTCCCGCTTCTTTCATTAATCCGATATCAACTGTTTTGCTATATACATTTACCTTTTAAGAGGAGGAAT			0.242
CGACATGTCCCGCTTCTTTCATTAATCCGTTAGCAACTGTTTTGCTTTATACATTTACCCTTTAAGAGGAGGAAT			0.206
ACAGACGAAGGAGCCGCAAAGAAGTTATTAAGGGATGTATAATCCCTGAATATAAATATCTCTCACTTATTTAAA	0.461		
ACAGACGAAGGAGCCGCAAAGAAGATATTAAGGGATGAATAATCCCACAATATAAATATCTCTCACTTATTTAAA	0.311		
ACAGACGAAGGAGCCGCAAAGAAGTTAATAAGGGATGAATAATCCCTCTATATAAATATCTCTCACTTATTTAAA	0.39		
ACAGACGAAGGAGCCGCAAAGAAGTTATTAAGGTATCAATAATCCCTCAATATAAATATCTCTCACTTATTTAAA	0.125	0.106	
ACAGACGAAGGAGCCGCAAAGACGTTATTAAGGGATGAATAATCCTTCAATATAAATATCTCTCACTTATTTAAA		0.427	
CGACATGTCCCGCTTCTTTCATTAATCCGTTATCAACTGTTTTGCTATATACATATACCTTTTAAGAGGAGGAAT			0.348
ACAGACGAAGGAGCCGCAAAGAAGTTATTAACGGATGAATAATCCCTCAATATAAATATCTCTCACTTATTAAAG	0.172		
CGACATGTCCCGCTTCTTTCATTAATCCGTAAGCAACTGTTTTGCTATATACATTTCCCTTTTAAGAGGAGGAAT			0.212
ACAGACGAAGGAGCCGCAAAGAAGTTATTAAGGGATGAATAATCACTCAACATAAATATCTCTCACTTATTTAAA	0.123		
ACAGACGAAGGAGCCGCAAAGAAGTGAATAAGGGATGAATAATCCCTCAATATAAATATCTCTCACTTATTTAAA	0.296		
CGACATGTCCCGCTTCTTTCATTACTCCGTTATGAACTGTTTTCCTATATACATTTACCTTTTAAGAGGAGGAAT			0.316
CGACATGTCCCGCTTCTTTCATTAATCCGTTAAAAACTGTTTTGCTATATACATTTACCTTTTAAGAGGAGGAAT			0.292
ACAGACGAAGGAGCCGCAAAGAACTTATTAAGGGATGAATAATTCCTCAATATAAATATCTCTCACTTATTTAAA	0.32	0.315	
ACAGACGAAGGAGCCGCAAAGAAGTTATTAACGGTTGAATAATCCCTCAATATAAATATCTCTCACTTATTTAAA	0.113	0.0654	
CGACATGTCCCGCTTCTTTCATTAATCCGATGGCAACTGTTTTGCTATATACATTTACCTTTTAAGAGGAGGAAT			0.74
CGACATGTCCCGCTTCTTTCATTAATTCGTTAGCAACTGTTTTGCTATATACATTTACCGTTTAAGAGGAGGAAT			0.591

Sequence	cleaved RNA product abundance [1]	cleaved RNA product abundance [2]	cleaved RNA product abundance [3]
CGACATGTCCCGCTTCTTTCATTATTCCGTCAGCAACTGTTTTGCTATATACATTTACCTTTTAAGAGGAGGAAT			0.502
ACAGACGAAGGAGCCGCAAAGAAGTTATTAAGGGTTGAATAATCACTCAATATAAATATCTCTCACTTATTTAAA	0.127	0.098	
ACAGACGAAGGAGCCGCAAAGAAGTTATTAAGCGATGAATAATCTCTCAATATAAATATCTCTCACTTATTTAAA	0.0997		
ACAGACGAAGGAGCCGCAAAGTAGTTATTAAGGGATGAATAATCCCTAAATATAAATATCTCTCACTTATTTAAA	0.55		
CGACATGTCCCGCTTCTTTCATTAATCCGTTAGCAACTGTTTTGTTATATATATTTACCTTTTAAGAGGAGGAAT			0.298
ACAGACGAAGGAGCCGCAAATAAGTTATTAAGGGATGAATAATCCCTCAATATAAAGATCTCTCACTTATTTAAA	0.565	0.535	
CGACATGTCCCGCTTCTTTCATTACTCCGTCAGCAACTGTTTTGCTATATACATTTACCTTTTAAGAGGAGGAAT			0.381
ACAGACGAAGGAGCCGCAAAGAAGTTATTAAGGGATGAATAATCACTCACTATAAATATCTCTCACTTATTTAAA	0.0806	0.0967	
ACAGACGAAGGAGCCGCAAAGAAGTTATTAAGGGAGGAATAACCCCTCAATATAAATATCTCTCACTTATTTAAA	0.213		
ACAGACGAAGGAGCCGCAAATAAGTTATTAAGGGATAAATAATCCCTCAATATAAATATCTCTCACTTATTTAAA	1.03		
CGACATGTCCCGCTTCTTTCATTAATCCGTTAGCAACTGTTTAGCTATATACATATACCTTTTAAGAGGAGGAAT			0.539
CGACATGTCCCGCTTCTTTCATTAATCCGTTAGCAACGGTTTTGATATATACATTTACCTTTTAAGAGGAGGAAT			0.515
ACAGACGAAGGAGCCGCAAAGAAGTTATTAAGGGATTAATAATCCCTCAATATCAATATCTCTCACTTATTTAAA	0.0629		
CGACATGTCCCGCTTCTTTCATTAATCCCTTAGCAACTGTTTTGCTATATAGATTTACCTTTTAAGAGGAGGAAT			0.355
ACAGACGAAGGAGCCGCAAAGAAGTTATTATGGGATGAATAATCCCTCAATATCAATATCTCTCACTTATTTAAA	0.0948		
CGACATGTCCCGCTTCTTTCATTAATCCCTTAGCAACTGTTTTGATATATACATTTAACTTTTAAGAGGAGGAAT			0.245
ACAGACGAAGGAGCCGCAAAGAAGTTATTAAGGGATGAAAAATCCCCCAATATAAATATCTCTCACTTATTTAAA	0.184		
ACAGACGAAGGAGCCGCAAAGAAGTTATTAAGGGATGAGTAATCCTTCAATATAAATATCTCTCACTTATTTAAA	0.346		
ACAGACGAAGGAGCCGCAAAGAAGTTATTAAGGGATGAATAATCCTTCCATATAAATATCTCTCACTTATTTAAA		0.19	
ACAGACGAAGGAGCCGCAAAGAAGTTATTAATGGATGAATAGTCCCTCAATATAAATATCTCTCACTTATTTAAA		0.0972	
ACAGACGAAGGAGCCGCAAAGAAGATATTAAGGCATGAATAATCCCTCAATATAAATATCTCTCACTTATTTAAA	0.17	0.088	
ACAGACGAAGGAGCCGCAAAGAAGTTAATAAGTGATGAATAATCCCTCAATATAAATATCTCTCACTTATTTAAA	0.129	0.167	
ACAGACGAAGGAGCCGCAAAGAAGTTATTAATGGATGAATAATCACTCAATATAAATATCTCTCACTTATTTAAA	0.141	0.106	
